# Results reported in US6362319B1, “Glial cell line-derived neurotrophic factor” (Amgen Inc., priority 1991, dated 2002).
# B1: glial cell line-derived neurotrophic factor (protein)
# chain: SNMPEDYPDQFDDVMDFIQATIKRLKRSPDKQMAVLPRRERNRQAAAANPENSRGKGRRGQRGKNRGCVLTAIHLNVTDLGLGYETKEELIFRYCSGSCDAAETTYDKILKNLSRNRRLVTDKVGQACCRPIAF
# notes: dopaminergic neurotrophic protein purified from serum-free conditioned medium of rat B49 glioblastoma cells; disulfide-bonded dimer
# How the values were obtained:
# [1] = test system: dopaminergic neurons in rat embryo (E16) mesencephalic cell cultures; experiment: Bioassay for dopaminergic neurotrophic activity: 3H-dopamine uptake in dissociated mesencephalic cell cultures; type: cell-based; details: for FOLD (specific activity relative to B49 conditioned medium): purification fold over CM
# Experimental: The dopaminergic activity of the GDNF is used to facilitate the purification process. […] Briefly, cultures of dissociated mesencephalic cells are prepared, either in serum rich or serum free environments. Samples to be tested for dopaminergic activity are desalted and serially added to the cell cultures and the dishes are incubated for 6 days at 37° C. in a humidified atmosphere containing 6.5% CO2. The cultures, in the presence of the testing material, are then incubated at 37° C. with tritiated dopamine (^3H-DA). The dopamine uptake is halted, the cells washed, and the dopamine uptake analyzed by scintillation counting of retained tritium in the cultures.
# Culture conditions: Dissociated mesencephalic cell cultures were prepared as previously described (Friedman and Mytilineou 1987 Neurosci. Lett. 79:65-72), with minor modifications. Briefly, rostral mesencephalic tegmentum from brains of Sprague-Dawley rat embryos, at the 16th day of gestation, were dissected under the microscope in sterile conditions, collected in Ca^2+- and Mg^2+-free Dulbecco's phosphate buffered saline (Gibco, Gaithersburg, Md.) and dissociated mechanically by mild trituration. The cells were plated in 100 μl per well onto 16-mm diameter tissue culture wells (Falcon, Lincoln Park, N.J., 24-well plate) containing 400 μl medium to give a density of 2.5-3.5×10^5 cells per well. The culture wells had been previously exposed to 0.1 mg/ml solution of poly L-ornithine in 10 mM sodium borate, pH 8.4, for 3 hours at 37° C., washed 3 times in milli-Q H2O and once in Earle's balanced salt solution (Gibco). The feeding medium (10/10) consisted of minimal essential medium (MEM, Gibco) supplemented with glucose (33 mM), sodium bicarbonate (24.5 mM), glutamine (2 mM), HEPES (15 mM), penicillin G (5 U/ml), streptomycin (5 μg/ml), 10% heat-inactivated fetal calf serum (Gibco) and 10% heat inactivated horse serum (Gibco). The cultures were kept at 37° C. in a water-saturated atmosphere containing 6.5% CO2. After 3 hours, when most of the cells had adhered to the bottom of the well, the medium was replaced with 500 μl of fresh medium. At this time, a serial dilution of the sample to be assayed for GDNF activity was added to each well in duplicate and the plates were incubated in the 37° C. incubator. After a week, the cultures were treated for 24 hours with fluorodeoxyuridine (13 μg/ml) and uridine (33 μg/ml) to prevent excessive glial proliferation and subsequently fed with the above medium without fetal calf serum. The feeding medium was changed weekly.
# Alternatively, chemically defined serum-free medium was used in which serum was replaced by a mixture of proteins; hormones and salts. The defined medium (DM) consisted of a mixture of MEM and F12 nutrient mixture (both Gibco, 1:1; vol/vol) with glucose (33 mM), glutamine (2 mM) NaHCO3 (24.5 mM), HEPES (15 mM), supplemented with transferrin (100 μg/ml), insulin (25 μg/ml), putrescine (60 μM), progesterone (20 nM), sodium selenite (30 nM), penicillin G (5 U/ml) and streptomycin (5 μg/ml). The osmolarity of the DM was adjusted to 325 by the addition of milli-Q H2O. (110-125 ml H2O/l). […] All assays reached in the following examples were done in serum-containing medium.
# The functional status of the dopaminergic neurons may be assayed in these cultures by measuring dopamine uptake through specific “scavenger” transporters in the dopaminergic neurons and by counting the number of neurons positive for the dopamine synthetic enzyme tyrosine hydroxylase using immunohistochemistry.
# [2] = test system: GABA neurons in mesencephalic cultures; experiment: 14C-GABA uptake in mesencephalic cultures; type: cell-based, rat; details: cultures grown with GDNF for 16 days
# Experimental: FIGS. 21A-C depicts the specificity of GDNF to dopaminergic neurons. Cultures were established as described in Example 1B. GDNF was added on the day of plating. A. ^3H-DA uptake was measured after seven days in vitro. B. ^14C-GABA uptake was measured after eight days in vitro. Cells were incubated and treated as for ^3H-DA uptake, except the uptake buffer consists of Kreb-Ringer's phosphate buffer, pH 7.4, containing 5.6 mM glucose, 1.3 mM EDTA, 10 μM amino-oxyacetic acid (to prevent GABA breakdown), 2 mM β-alanine (to inhibit glia uptake of GABA) and 0.1 μM ^14C-GABA (150 mCi/mmole, New England Nuclear, Boston, Mass.). In the presence of 1 mM diaminobutyric acid (DABA), a potent inhibitor of ^14C-GABA uptake into GABA neurons, the ^14C-uptake was reduced to 10%. Control values in the presence of DABA were subtracted from experimental values.
# H^3-dopamine (^3H-DA) and ^14C-GABA uptake were measured in sister cultures of mesencephalic cells which had been grown with various concentrations of GDNF for 15 and 16 days, respectively. As described above, GDNF enhanced the ^3H-DA uptake capacity of mesencephalic dopamine neurons ˜150% over control without GDNF (FIG. 21A). […] This is also illustrated by the increase in the ^3H-DA/^14C-GABA uptake ratio calculated (FIG. 21C).
# [3] = test system: TH+ dopamine neurons in mesencephalic cultures; experiment: Tyrosine hydroxylase (TH) immunoreactivity in mesencephalic cultures; type: cell-based, rat; details: added at day of plating, examined eight days later
# Experimental: FIGS. 20A-B depicts the ability of GDNF to stimulate dopamine uptake and tyrosine hydroxylase (TH) immunostaining in dopaminergic neurons. Cultures were established as described in Example 1B. […] B. […] Primary antibody binding was visualized using a Vectastain ABC kit (Vector Labs, Burlingame, Calif.).
# Culture conditions: Dissociated mesencephalic cell cultures were prepared as previously described (Friedman and Mytilineou 1987 Neurosci. Lett. 79:65-72), with minor modifications. Briefly, rostral mesencephalic tegmentum from brains of Sprague-Dawley rat embryos, at the 16th day of gestation, were dissected under the microscope in sterile conditions, collected in Ca^2+- and Mg^2+-free Dulbecco's phosphate buffered saline (Gibco, Gaithersburg, Md.) and dissociated mechanically by mild trituration. The cells were plated in 100 μl per well onto 16-mm diameter tissue culture wells (Falcon, Lincoln Park, N.J., 24-well plate) containing 400 μl medium to give a density of 2.5-3.5×10^5 cells per well. The culture wells had been previously exposed to 0.1 mg/ml solution of poly L-ornithine in 10 mM sodium borate, pH 8.4, for 3 hours at 37° C., washed 3 times in milli-Q H2O and once in Earle's balanced salt solution (Gibco). […]
molecule,measurement,setting,value
B1,bioactivity in dopamine uptake assay,[1],active in stimulating dopamine uptake in both serum-containing and defined media
same,"SP. ACT (specific activity, dopamine uptake trophic units per protein)",[1]; TU = reciprocal of dilution giving 50% of maximal stimulation of 3H-DA uptake,"at least 12,000 TU/μg"
same,concentration for half-maximal stimulation of dopamine uptake,[1]; indicated by the specific activity,approximately 60 pg/ml
same,FOLD (specific activity relative to B49 conditioned medium),[1],"about 24,000"
same,FOLD (specific activity relative to B49 conditioned medium),[1]; listed as substantially purified GDNF,"at least 24,000"
same,estimated specific activity,[1]; purified GDNF after final RP-HPLC,about 17 trophic units/ng
same,ED50 for increasing dopamine uptake,[1]; rat embryo (E16) mesencephalic culture,about 50 pg/ml
same,14C-GABA uptake higher than control,[2],~20%
same,number of TH+ neurons over controls without GDNF,[3],tenfold higher
